In the experiment the target is CaV1.2 C-terminal domain, residues 1520-1669 (two channel EF-hand motifs, pre-IQ and IQ-motif) (rabbit) (UniProt P15381). Briefly: SEC.
Chain of UniProt P15381 (P15381 1520-1669): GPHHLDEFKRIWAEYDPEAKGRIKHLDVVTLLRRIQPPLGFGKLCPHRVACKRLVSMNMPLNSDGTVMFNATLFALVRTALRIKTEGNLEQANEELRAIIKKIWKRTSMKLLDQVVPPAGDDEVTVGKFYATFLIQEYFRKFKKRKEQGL

Regarding “Calmodulin (from UniProt P0DP23 1-149) (natural protein)”, the stoichiometry N (CaM per CT(1520-1669) (4:4)) amounted to 1.
